Reference: patent CN113234166A (SHENZHEN INNOVA NANOBODI CO LTD, dated 2021)

Biological target: T1, 血清标本中的AFP抗原 (UniProt P02771 19-609)
T1 construct: also called 质控血清AFP; 标准血清中的AFP
T1 sequence (looked up): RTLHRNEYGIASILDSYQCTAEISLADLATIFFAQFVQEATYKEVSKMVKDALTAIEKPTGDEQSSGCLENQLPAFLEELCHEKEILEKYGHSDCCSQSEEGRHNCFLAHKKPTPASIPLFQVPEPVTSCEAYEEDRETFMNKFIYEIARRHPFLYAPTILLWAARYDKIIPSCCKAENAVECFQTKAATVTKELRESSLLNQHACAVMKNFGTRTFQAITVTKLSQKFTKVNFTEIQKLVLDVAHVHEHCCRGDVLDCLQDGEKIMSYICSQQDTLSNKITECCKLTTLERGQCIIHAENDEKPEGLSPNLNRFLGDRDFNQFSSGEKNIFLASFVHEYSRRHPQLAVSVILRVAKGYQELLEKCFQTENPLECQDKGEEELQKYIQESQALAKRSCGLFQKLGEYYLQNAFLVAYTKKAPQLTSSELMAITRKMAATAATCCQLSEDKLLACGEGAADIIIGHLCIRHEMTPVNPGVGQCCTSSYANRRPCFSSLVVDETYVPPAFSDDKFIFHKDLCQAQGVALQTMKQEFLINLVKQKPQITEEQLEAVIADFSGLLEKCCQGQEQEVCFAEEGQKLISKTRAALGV
Test: double-antibody sandwich chemiluminescent immunoassay, detection antibody

binding result: binds
B1: 带有化学发光区序列的纳米抗体1C5-HAP (other)
chain: QVQLQESGGGLVQAGGSLRLSCKASERTFSSYSMAWYRQAPGKKREFVASISWDDERTYYTDSVKGRFTISRPNAKNTVYLQMNSLKPEDTAVYYCAVGGLSDGLGPSYDYWGQGTQVTVSSGGGGSGGGGSGGGGSIIPVEEENPDFWNREAAEALGAAKKLQPAQTAAKNLIIFLGDGMGVSTVTAARILKGQKKDKLGPEIPLAMDRFPYVALSKTYNVDKHVPDSGATATAYLCGVKGNFQTIGLSAAARFNQCNTTRGNEVISVMNRAKKAGKSVGVVTTTRVQHASPAGTYAHTVNRNWYSDADVPASARQEGCQDIATQLISNMDIDVILGGGRKYMFRMGTPDPEYPDDYSQGGTRLDGKNLVQEWLAKRQGARYVWNRTELMQASLDPSVTHLMGLFEPGDMKYEIHRDSTLDPSLMEMTEAALRLLSRNPRGFFLFVEGGRIDHGHHESRAYRALTETIMFDDAIERAGQLTSEEDTLSLVTADHSHVFSFGGYPLRGSSIFGLAPGKARDRKAYTVLLYGNGPGYVLKDGARPDVTESESGSPEYRQQSAVPLDEETHAGEDVAVFARGPQAHLVHGVQEQTFIAHVMAFAACLEPYTACDLAPPAGTTD
notes: Expressed in 293 cells
